Source: patent publication US20200347130A1 (JIANGSU HENGRUI MEDICINE, published 2020)

T1: CD96 epitope peptide #5 (77-86) (human)
T1 peptide: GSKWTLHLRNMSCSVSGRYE

T2: CD96 epitope peptide #20 (295-314) (human)
T2 peptide: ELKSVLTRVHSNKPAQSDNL

T3: CD96 epitope peptide #16 (235-254) (human)
T3 peptide: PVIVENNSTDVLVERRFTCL

T4: CD96 epitope peptide #17 (250-269) (human)
T4 peptide: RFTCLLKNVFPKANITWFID

T5: CD96 epitope peptide #15 (220-239) (human)
T5 peptide: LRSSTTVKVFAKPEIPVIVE

T6: CD96 epitope peptide #14 (211-230) (human)
T6 peptide: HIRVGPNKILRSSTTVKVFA

T7: CD96 epitope peptide #13 (196-215) (human)
T7 peptide: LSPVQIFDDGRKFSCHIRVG

T8: CD96 epitope peptide #8 (122-141) (human)
T8 peptide: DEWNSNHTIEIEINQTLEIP

T9: CD96 epitope peptide #12 (181-200) (human)
T9 peptide: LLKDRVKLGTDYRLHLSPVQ

T10: CD96 epitope peptide #7 (107-126) (human)
T10 peptide: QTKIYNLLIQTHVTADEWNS

T11: CD96 epitope peptide #2 (32-51) (human)
T11 peptide: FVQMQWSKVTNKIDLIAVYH

T12: CD96 epitope peptide #11 (166-185) (human)
T12 peptide: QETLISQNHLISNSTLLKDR

T13: CD96 epitope peptide #22 (325-344) (human)
T13 peptide: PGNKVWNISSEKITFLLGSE

T14: CD96 epitope peptide #1 (17-36) (human)
T14 peptide: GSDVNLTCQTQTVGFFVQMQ

T15: CD96 epitope peptide #6 (92-111) (human)
T15 peptide: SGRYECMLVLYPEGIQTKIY


How the values were obtained:
[1] = biological target: T1, CD96 epitope peptide #5 (77-86 as …); test: peptide ELISA ('-' indicates no binding, table note)
Method: (§1) The epitopes recognized by anti-CD96 antibody were detected by the assay of binding the antibody to different polypeptide fragments of CD96 protein. The fragments of different polypeptides of the CD96 antigen were coated on the microtiter plate. The signal density after the antibody was added was used to judge the binding activity of the antibody and the polypeptide. The specific experimental method is as follows:
(§2) The polypeptides were diluted to a concentration of 20 μg/ml with PBS buffer (Shanghai Yuanpei Biotechnology Co., Ltd. Cat No. B320), pH 7.4, added to a 96-well microtiter plate (Corning, Cat No. CLS3590-100EA) at a volume of 50 μl/well, and coated at 4° C. overnight. After discarding the liquid, 250 μl/well of 5% skim milk (BD skim milk, Cat No. 232100) blocking solution diluted with PBS was added, and the plate was incubated in an incubator at 37° C. for 3 hours. After blocking, the blocking solution was discarded, and the plate was washed 5 times with PBST buffer (pH 7.4 PBS containing 0.05% tween-20). 50 μl/well of different concentrations of the antibodies to be tested (hybridoma purification antibody or humanized antibody) diluted with sample dilution was added, and the plate was incubated in an incubator at 37° C. for 2 hours. […] After washing the plate 5 times with PBST, 50 μl/well of TMB chromogenic substrate (KPL, Cat No. 52-00-03) was added, the plate was incubated at room temperature for 5-15 min, followed by adding 50 μl/well of 1M H₂SO₄ to stop the reaction. The absorption value was read at 450 nm with a microplate reader (Thermo Scientific MuLtiskan MK3), and the epitopes that CD96 antibody can recognize were analyzed.

[2] = biological target: T2, CD96 epitope peptide #20 (295-314); test: as above
Method: as §1, §2

[3] = biological target: T3, CD96 epitope peptide #16 (235-254); test: as above
Method: as §1, §2

[4] = biological target: T4, CD96 epitope peptide #17 (250-269); test: as above
Method: as §1, §2

[5] = biological target: T5, CD96 epitope peptide #15 (220-239); test: as above
Method: as §1, §2

[6] = biological target: T6, CD96 epitope peptide #14 (211-230); test: as above
Method: as §1, §2

[7] = biological target: T7, CD96 epitope peptide #13 (196-215); test: as above
Method: as §1, §2

[8] = biological target: T8, CD96 epitope peptide #8 (122-141); test: as above
Method: as §1, §2

[9] = biological target: T9, CD96 epitope peptide #12 (181-200); test: as above
Method: as §1, §2

[10] = biological target: T10, CD96 epitope peptide #7 (107-126); test: as above
Method: as §1, §2

[11] = biological target: T11, CD96 epitope peptide #2 (32-51); test: as above
Method: as §1, §2

[12] = biological target: T12, CD96 epitope peptide #11 (166-185); test: as above
Method: as §1, §2

[13] = biological target: T13, CD96 epitope peptide #22 (325-344); test: as above
Method: as §1, §2

[14] = biological target: T14, CD96 epitope peptide #1 (17-36); test: as above
Method: as §1, §2

[15] = biological target: T15, CD96 epitope peptide #6 (92-111); test: as above
Method: as §1, §2

[16] = biological target: T1, CD96 epitope peptide #5 (77-86 as …); test: peptide ELISA, peptide coated
Method: as §1, §2

[17] = biological target: T4, CD96 epitope peptide #17 (250-269); test: peptide ELISA, peptide coated
Method: as §1, §2

[18] = biological target: T6, CD96 epitope peptide #14 (211-230); test: peptide ELISA, peptide coated
Method: as §1, §2

[19] = biological target: T14, CD96 epitope peptide #1 (17-36); test: peptide ELISA, peptide coated
Method: as §1, §2

binding result [1]	binding result [2]	binding result [3]	binding result [4]	binding result [5]	binding result [6]	binding result [7]	binding result [8]	binding result [9]	binding result [10]	binding result [11]	binding result [12]	binding result [13]	binding result [14]	binding result [15]	binding result [16]	binding result [17]	binding result [18]	binding result [19]	Binder
no binding	no binding	no binding	no binding	no binding	no binding	no binding	no binding	no binding	no binding	no binding	no binding	no binding	no binding	no binding					ch1719 (antibody, human IgG4 S228P, kappa, V domains shown, also called chimeric antibody corresponding to m1719) VH: QVQLKESGPGLVAPSQSLSITCTVSGFSLISYGVSWVRQPPGKGLEWLGVIWGDGNTNYHSVLISRLSIRKDDSKSQVFLKLNSLQTDDTATYYCAKNNYYGSRYGYPMDYWGQGTSVTVSS VL: DIVMTQSHKFMSTSVGDRVSITCKATQDVGTAVAWYQQKPGHSPKLLIYWASTRHTGVPERFTGSGSGTDFTLTIDNVQSEDLADYFCQQYGSSVLTFGAGTKVELRR
															binds	binds	binds	binds	ch1721 (antibody, human IgG4 S228P, kappa, V domains shown, also called chimeric antibody corresponding to m1721) VH: QVQLKESGPGLVAPSQSLSITCTVSGFSLISYGVNWVRQPPGKGLEWLGVIWGDGSTNYHSALISRLSISKDDSKSQVFLNLNSLQTDDTATYYCAKNYFYGSRYGYAMDSWGQGISVTVSS VL: DIQMTQSPASLSAAVGETVTITCRASENIYSSLAWYQQKQGKSPQLLVYNAKTLIETVASRFSGSGSGTQYSLKINSLQPEDFGSFYCQHHYGTPYTFGGGTKLEIKR
no binding	no binding	no binding	no binding	no binding	no binding	no binding	no binding	no binding	no binding	no binding	no binding	no binding	no binding	no binding					ch1720 (antibody, human IgG4 S228P, kappa, V domains shown, also called chimeric antibody corresponding to m1720) VH: EFQLQQSGPELVKPGASVKISCKASAYSLTDYNMNWVKQSNGKSLEWIGVINPSYGISSYNQKFKGKATLTVDQSSSTAYMHLNSLTSEDSAVYYCARQLRLPGYFDVWGTGTTVTVSS VL: DIKMTQSPSSKNASLGERVTITCKASQDINSYLNWFQQKPGKSPKTLIYRASRLVDGVPSRFSGSGSGQDYSLTISSLEYEDMGIYYCLKYDEFPYTFGGGTKLEIKR
															binds	binds	binds	binds	ch1718 (antibody, human IgG4 S228P, kappa, V domains shown, also called chimeric antibody corresponding to m1718) VH: EFQLQQSGPELVKPGASVKISCKASAYSITDYNMNWVKQSNGKSLEWIGVINPSYGITDYNQNFKDKATLTVDQSSSTAYMQLNSLTSEDSAVYYCAIQLRLPGYFDVWGTGTTVIVSS VL: DIKMTQSPSSMYASLGERVTITCKASQDINNYLNWFQQKPGKSPKTLIYRANRLVDGVPSRFSGSGSGQDYSLTISSLEYEDMGIYYCLKYDEFPYTFGGGTKVEIKR
